# Test results: US6800481B1, “Stable macroscopic membranes formed by self-assembly of amphiphilic peptides and uses therefor” (priority 1992, dated 2004)
# “Also recorded” adds a separate entry of the source.
# B1: zuotin: 433 amino acid yeast putative Z-DNA binding protein, SEQ ID NO: 2 (protein)
# chain: MFSLPTLTSDITVEVNSSATKTPFVRRPVEPVGKFFLQHAQRTLRNHTWSEFERIEAEKNVKTVDESNVDPDELLFDTELADEDLLTHDARDWKTADLYAAMGLSKLRFRATESQIIKAHRKQVVKYHPDKQSAAGGSLDQDGFFKIIQKAFETLTDSNKRAQYDSCDFVADVPPPKKGTDYDFYEAWGPVFEAEARFSKKTPIPSLGNKDSSKKEVEQFYAFWHRFDSWRTFEFLDEDVPDDSSNRDHKRYIERKNKAARDKKKTADNARLVKLVERAVSEDPRIKMFKEEEKKEKERRKWEREAGARAEAEAKAKAEAEAKAKAESEAKANASAKADKKKAKEAAKAAKKKNKRAIRNSAKEADYFGDADKATTIDEQVGLIVDSLNDEELVSTADKIKANAAGAKEVLKESAKTIVDSGKLPSSLLSYFV
# B2: bacterially expressed zuotin: zuotin expressed in E. coli with T7 pET system, Phe→Val after Met (protein, UniProt P32527 1-433, looked up, variant F2V)
# Zuotin: MVSLPTLTSDITVEVNSSATKTPFVRRPVEPVGKFFLQHAQRTLRNHTWSEFERIEAEKNVKTVDESNVDPDELLFDTELADEDLLTHDARDWKTADLYAAMGLSKLRFRATESQIIKAHRKQVVKYHPDKQSAAGGSLDQDGFFKIIQKAFETLTDSNKRAQYDSCDFVADVPPPKKGTDYDFYEAWGPVFEAEARFSKKTPIPSLGNKDSSKKEVEQFYAFWHRFDSWRTFEFLDEDVPDDSSNRDHKRYIERKNKAARDKKKTADNARLVKLVERAVSEDPRIKMFKEEEKKEKERRKWEREAGARAEAEAKAKAEAEAKAKAESEAKANASAKADKKKAKEAAKAAKKKNKRAIRNSAKEADYFGDADKATTIDEQVGLIVDSLNDEELVSTADKIKANAAGAKEVLKESAKTIVDSGKLPSSLLSYFV
# Columns and labels:
# [1] = Testing of peptides for macroscopic membrane formation (phase-contrast microscope, Congo Red staining); type: physicochemical; conditions: for formation of macroscopic membranes: identical conditions, in words; for membranous structure in DMEM: DMEM medium
# Source text: The effect of length and sequence on membrane formation was examined using several peptides (Table 1 and Example 3). […] Very long peptides, e.g., of about 200 amino acids, may encounter problems due to insolubility and intramolecular interactions which destabilize membrane formation. […] The optimal lengths for membrane formation will probably vary with the amino acid composition.
# The EAK12 and EAK16 tested for membrane formation were acetylated and aminylated at both N- and C-terminal ends. […] The peptides were initially dissolved in water (5 mg/ml) or in 23% acetonitrile (10 mg/ml). A volume of 5-10 microliters of the dissolved peptides were applied to the DMEM medium, PBS or water. The formation of the membrane was first observed under a phase-contrast microscope and then, by the naked eye after staining with Congo Red.
# [2] = type: physicochemical
# Method: Circular dichroism (CD) spectra were taken on an Aviv Model 60DS spectropolarimeter using program 60HDS for data processing. Because EAK16 contains both positively and negatively charged residues, the peptide itself can serve as a buffer. CD samples were prepared and measured at 25° C., unless otherwise indicated. All reagents were ultrapure and solutions were filtered through a […] before use. Circular dichroism (CD) spectroscopy was used to monitor the stability of the β-sheet structure of EAK16 under various conditions. Dilute […] concentrations. […] A 3 mM stock EAK16 solution was mixed in water to a concentration of 20 μM, allowed to equilibrate, and the CD spectrum measured. The solution was then diluted five times by two-fold serial dilutions to final concentrations of […], 10, 5.0, 2.5, 1.25 and 0.625 μM, allowed to equilibrate and CD spectra taken. […] Temperature. The CD spectra of 8 μM EAK16 at 25, 37, 55, 70 and 90° C. in water were measured. […] EAK16 has a calculated pI Of 6.71. It was assumed that changes of pH would have a great effect on the β-sheet structure, especially when the charged groups are neutralized. […] The 3 mM stock solution of EAK16 was mixed with pH buffers at pH 1.5, 3, 7, and 11 to a final concentration of 10 μM and allowed to equilibrate for 4 hours before taking CD measurements. […] Chemical denaturants. […] The peptide (3 mM stock) was mixed with water or different concentrations of guanidine-HCl or urea and allowed to incubate overnight before taking CD measurements. SDS was added to a peptide solution to a final concentration of 0.1% and incubated for 30 minutes.
# [3] = test system: B-DNA; assay: Binding of small peptides to B-DNA and conversion to the Z conformation; type: biochemical
# Source text: A subportion of this histone-like region from amino acids 306 to 339 (heavily underlined in FIG. 1) is a likely candidate for a DNA-binding domain. […] The KAKAX motif (SEQ ID NO: 31) (where X is variable) occurs twice in the 306-339 region and also occurs in the peptide, EAK16. These observations are consistent with the structural similarity of this region to histone H1.
# [4] = test system: poly(dG-m^5dC) in the Z-form; assay: Gel retardation (band shift) and competition assay for Z-DNA binding; conditions: for competition of binding to poly(dG-m^5dC) by non-Z DNA: excess poly(dG-dC), poly(dA-dT), salmon sperm DNA; for affinity for Z-DNA relative to B-DNA: not purified to homogeneity, estimated
# Source text: Two probes that can be stabilized in the Z-form were used to detect potential Z-DNA binding proteins. One is an ˜600 bp fragment of ^32P-labelled poly(dG-m^5dC) that is stabilized in the Z-DNA form by millimolar concentrations of MgCl2 (Behe and Felsenfeld, 1981); the other is an oligonucleotide, [^32P] (dG-BR^5dC)22, that can be stabilized by millimolar concentrations of MgCl2 or μM concentrations of Co(NH3)6^3+. Yeast whole cell extract, nuclear extracts, and phosphocellulose column fractions of yeast nuclear extracts were assayed by a gel retardation assay using either of these ^32P-labelled DNA fragments as a probe. The gel retardation assay was carried out with the probe in the presence of 10 mM MgCl2 and a 400-fold excess of sheared salmon sperm B-DNA. Under these conditions, the polymer assumes the Z-DNA conformation. A Z-DNA-specific antibody was used for positive control. 1 μl of each fraction of yeast nuclear extract obtained by salt elution from the phosphocellulose column with 0.2-0.5 M potassium phosphate (pH 7.4) was added to the assays.
# In order to determine if these band shifts were the result of authentic Z-DNA binding, negatively supercoiled plasmids of pUC19 and pUC19(GC) were used as competitor DNAs in gel retardation competition assays. In these assays, [^32P] (dG-Br^5dC)22 was incubated in the presence of a 2000-fold excess of sheared salmon sperm DNA with additions as follows: 1) no addition; 2) a monoclonal anti-Z-DNA antibody (mAb); 3) mAb plus additional 50 ng of negatively supercoiled plasmid pUC19 (without a Z-DNA insert); 4) mAb plus 25 ng of negatively supercoiled pUC19(CG) (containing a Z-DNA segment); 5) fraction F1 yeast protein; 6) F1 plus additional 50 ng pUC19; and 7) F1 plus pUC19(GC). pUC19(GC) contains a 14 bp (dG-dC)7 insert that can adopt the Z-conformation upon negative supercoiling. pUC19(GC) was assayed for its resistance to BssHII digestion (Vardimon and Rich, 1983; Azorin et al., 1984) to confirm the presence of the Z-DNA prior to the assay.
# However, enough material was in solution so that crude cell extracts and partially purified zuotin could be prepared and assayed by the band shift assay. Recombinant zuotin was partially purified by chromatography of crude cell extract from induced pETZU01 transformants through phosphocellulose. ^32P-labelled poly(dG-m5dC) in the Z-form was incubated with the crude cell extract or with partially purified zuotin in the presence of sheared salmon sperm DNA, poly(dG-dC), or poly(dG-Br^5dC). Assays were run on: 1) labelled probe alone; 2) crude cell extract from induced pET8c transformants; 3) crude cell extract from uninduced pETZU01 transformants; 4) crude cell extract from induced pETZU01 transformants; 5) partially purified recombinant zuotin; 6) partially purified yeast zuotin; 7)-10) partially purified recombinant zuotin with 20-, 40-, 100-, and 200-fold excess of salmon sperm DNA; 11)-12) partially purified recombinant zuotin with 20- and 40-fold excess of poly(dG-dC); 13)-14) partially purified recombinant zuotin with 20- and 40-fold excess of poly(dG-Br^5dC); 15)-17) partially purified yeast zuotin with 20-, 40-, and 200-fold excess of salmon sperm DNA; 18) partially purified yeast zuotin with 40-fold excess of poly(dG-dC); 19) partially purified yeast zuotin with 40-fold excess of poly(dG-Br^5dC); and 20) an anti-Z-antibody (as control).
# A gel retardation assay was employed to detect proteins with affinity to left-handed Z-DNA. […]
Molecule,membranous structure in PBS [1],formation of macroscopic membranes [1],membranous structure in Water [1],membranous structure in DMEM [1],binding to B-DNA and conversion to Z-DNA [3],other results
Ac-HN-AEAKAEAEAKAK-CONH2 (Ac-AEAKAEAEAKAK-NH2) [EAK12],+,able to associate to a much smaller extent and formed small and non-uniform pieces of membranous material,−,,,"secondary structure and its stability [2]: denature from a β-sheet structure at high temperatures; Structure ([2]; secondary structure): α, β"
H2N-AEAEAKAK-COOH (H-AEAEAKAK-OH) [EAK8],−,did not form membranes,−,−,,secondary structure and its stability [2]: random coil structure
"H2N-ARARADAD-COOH (H-ARARADAD-OH) [ARD8, 8 amino acid counterpart of RAD16]",−,did not form macroscopic membranes,−,−,,
"H2N-GSNKGAIIGLM-CONH2 (H-GSNKGAIIGLM-NH2) [β-Amyloid (25-35), reference compound]",−,None of these peptides produced macroscopic membranes,−,−,,
"H2N-RPKQQFGLM-COHN2 (H-RPKQQFGLM-NH2) [Substance p, reference compound]",−,None of these peptides produced macroscopic membranes,−,−,,
KAHAK,,,,,active in converting B-DNA to Z-DNA only when the histidine was protonated (at low pH),
KAK,,,,,able to bind to B-DNA and convert it to the Z conformation,
KAKAK,,,,,able to bind to B-DNA and convert it to the Z conformation,
B1,,,,,,"excess of poly(dG-Br^5dC) in the Z-form that completely inhibits binding to the probe [4]: 4 fold; competition of binding to poly(dG-m^5dC) by non-Z DNA [4]: cannot be competed by 40-fold excess of poly(dG-dC), 200-fold excess of poly(dA-dT), nor several thousand-fold of salmon sperm DNA; affinity for Z-DNA relative to B-DNA ([4]; listed as yeast zuotin): bound Z-DNA more tightly than the bacterially expressed zuotin; also recorded: several hundred-fold enhanced affinity for Z-DNA relative to B-DNA"
B2,,,,,,"competition of binding to poly(dG-m^5dC) by non-Z DNA [4]: cannot be competed by 40-fold excess of poly(dG-dC), 200-fold excess of poly(dA-dT), nor several thousand-fold of salmon sperm DNA; affinity for Z-DNA relative to B-DNA [4]: binds less tightly"
